Measurements reported in patent US20020045191A1, “Inhibition of the SRC kinase family pathway as a method of treating HBV infection and hepatocellular carcinoma” (priority 2000, published 2002).

Tests used:
MAP kinase (ERK2) [1] = assay: MAP kinase (ERK2) immunoprecipitation / MBP kinase assay in HBx-transfected Chang cells; type: cell-based, human
Protocol: (FIG. 2B) ERK2 was immunoprecipitated from equal amounts of cell lysates analyzed by in vitro phosphorylation of myelin basic protein (MBP) using [γ-^32P] ATP. […] Cells were stimulated with 100 μg/ml of insulin (Intergen) for 10 min.
To assay for MAP kinase activity, cells were lysed in freshly prepared lysis buffer (10 mM Tris HC1 pH 7.5, 1% Triton X-100, 0.5% NP-40, 1 mM EDTA, 1 mM EGTA, 1 mM Na3VO4, 50 mM NaF, 1 mM PMSF, 40 mM PPi, 10 μg/ml aprotinin, and 10 μg/ml leupeptin) and MAP kinase was immunoprecipitated using 1μg/ml anti-ERK2 antibodies from equal amounts of protein. After 4 washes with lysis buffer, and 2 with kinase buffer (20 mM Hepes pH 7.4, 10 mM MgCl2), the immunoprecipitates were incubated with kinase buffer including 0.5 mg/ml myelin basic protein (MBP, Sigma), 10 mM ATP and 5 μCi [γ-^32P]ATP for 30 minutes at 30° C. The reactions were stopped by the addition of 2× sample loading buffer (Sambrook et al. 1989, supra), resolved by 15% SDS-PAGE and visualized by autoradiography. Assays for activation of JNK MAP kinases were carried out exactly as described above, except that the immunoprecipitated JNK was incubated with 5 μg purified GST-c-Jun (Benn et al., 1996, supra) and 10 μCi [γ-^32P]ATP, and resolved by 10% SDS-PAGE.
To test whether HBx activation of the Src family of kinases is required for stimulation of Ras signaling by HBx, Chang cells were transfected at low density with plasmids expressing HBxo, HBx or HBx and Csk, serum-starved for 20 hours, 2% serum restored for 2 hours to permit protein synthesis, and activation of immunoprecipitated MAP kinase at the end of the Ras-MAP kinase cascade assayed by incubation with myelin basic protein (MBP) and [γ-^32P]ATP (FIG. 2). Expression of HBx induces a strong activation in the ability of MAP kinase to phosphorylate MBP that is abolished upon co-transfection of HBx with Csk. […]

AP-1 = AP-1 electrophoretic mobility shift assay (EMSA), HBx-transfected Chang cells; type: cell-based, human; settings: cotransfection of increasing amounts of Csk plasmid
Protocol: (FIG. 3A) Cell extracts were prepared for AP-1 EMSA as described (Benn et al., 1996, supra) using a ^32P-labeled dsDNA oligonucleotide probe containing one AP-1 binding site. Reactions were carried out using 3 μg of nuclear extract, labeled oligonuleotide and 1 μg of poly(dI-dC) for 30 min at 23° C. Protein-DNA complexes were resolved by electrophoresis on 4% polyacrylamide gels and visualized by PhosphorImage 5analysis. As a positive control for AP-1 stimulation, cells were treated with 20 μM TPA for 30 min.
Here it is shown that HBx activation of AP-1 DNA binding activity and AP-1 directed transcription, both involve an essential requirement for HBx activation of Src tyrosine kinases. Chang cells were transfected with plasmids expressing HBx or HBxo proteins, with or without cotransfection of Csk, serum starved and nuclear extracts prepared for electrophoretic mobility shift assay (EMSA) using equal amounts of nuclear extracts and a ^32P-labeled dsDNA probe containing one AP-1 binding site, as described (Benn et al., 1996 supra). Cotransfection of increasing amounts of the Csk expressing plasmid suppressed HBx induction of AP-1 DNA binding complexes in a titratable manner (FIG. 3A). […]

[2] = test system: AP-1 dependent transcription; assay: AP-1 dependent luciferase reporter, HBx-transfected Chang cells; type: cell-based, human; settings: co-expression with Csk
Protocol: (FIG. 3B) Cells were transfected as above but contained in addition 3 μg of plasmid pAP-1Luc, which encodes the luciferase reporter under the control of four AP-1 binding sites and a minimal TATA box promoter. Serum starved cells were harvested 18 h after transfection and the level of expression of the luciferase reporter assayed. Results are the average of three independent experiments.
Here it is shown that HBx activation of AP-1 DNA binding activity and AP-1 directed transcription, both involve an essential requirement for HBx activation of Src tyrosine kinases. Chang cells were transfected with plasmids expressing HBx or HBxo proteins, with or without cotransfection of Csk, serum starved and nuclear extracts prepared for electrophoretic mobility shift assay (EMSA) using equal amounts of nuclear extracts and a ^32P-labeled dsDNA probe containing one AP-1 binding site, as described (Benn et al., 1996 supra). Cotransfection of increasing amounts of the Csk expressing plasmid suppressed HBx induction of AP-1 DNA binding complexes in a titratable manner (FIG. 3A). Finally, cells were cotransfected with plasmids expressing HBx or HBxo and an AP-1 dependent luciferase reporter under the control of a minimal promoter, with and without a Csk expression plasmid (FIG. 3B).

N-Myc = N-Myc immunoblot of nuclear extracts, HBx-transfected Chang cells; type: cell-based, human; settings: co-expression with HBx, serum-starved 20 hours
Protocol: Chang cells were transfected with plasmids expressing HBxo, HBx, Csk, SrcK^−, FynK^−, and the dominant-negative Ras (RasN17). The Ras N17 mutant was initially shown to preferentially bind GDP in vitro and to inhibit cellular proliferation when stably expressed in NIH 3T3 cells (Feig et al., 1988, Moll. Cell Biol. 8:3235-3243). Transfected cells were serum-starved for 20 hours, nuclear extracts prepared, equal amounts of protein resolved by SDS-PAGE and immunoblotted with anti-N-Myc antibodies. Expression of transfected HBx elevates the amount of N-Myc protein 3-4 fold. […] The inability of dominant-negative Ras or Fyn proteins to block Src activation is consistent with the report by Barone and Courtneidge (1995, supra). Co-expression of HBx with the dominant-negative Ras had no effect on induction of N-Myc by HBx, and neither did the expression of dominant-negative Fyn protein. Whether other Src family members (e.g. Yes or Lyn) are involved in N-Myc induction by HBx was not tested in these experiments.

MAP kinase (ERK2) [3] = assay: MAP kinase (ERK2) MBP kinase assay during WHV replication in Chang cells; type: cell-based, human; settings: co-expression with wtWHV
Protocol: FIG. 6. Woodchuck Hepatitis B Virus (WHV) HBx protein (WHx) activates a Src-Ras signaling cascade during WHV replication in cultured cells. […] Eighteen hours post-transfection, cells were serum-starved in 0.5% CS for 20 hours, MAP kinase (ERK-2) was immunoprecipitated from equal amounts of cell lysates and pellets were subjected to an in vitro MBP kinase assay.
To assay for MAP kinase activity, cells were lysed in freshly prepared lysis buffer (10 mM Tris HC1 pH 7.5, 1% Triton X-100, 0.5% NP-40, 1 mM EDTA, 1 mM EGTA, 1 mM Na3VO4, 50 mM NaF, 1 mM PMSF, 40 mM PPi, 10 μg/ml aprotinin, and 10 μg/ml leupeptin) and MAP kinase was immunoprecipitated using 1μg/ml anti-ERK2 antibodies from equal amounts of protein. After 4 washes with lysis buffer, and 2 with kinase buffer (20 mM Hepes pH 7.4, 10 mM MgCl2), the immunoprecipitates were incubated with kinase buffer including 0.5 mg/ml myelin basic protein (MBP, Sigma), 10 mM ATP and 5 μCi [γ-^32P]ATP for 30 minutes at 30° C. […]
To determine whether WHx also requires activation of Src family kinases for stimulation of Ras signaling during ongoing viral replication, Chang cells were co-transfected with plasmids synthesizing wtWHV and dominant-negative Ras (RasDN), dominant-negative Src (SrcK^−), or Csk proteins, and activation of MAP kinase was measured. […]

WHV [4] = assay: WHV replication: Southern blot of core-associated viral DNA, Chang cells; type: cell-based, Woodchuck Hepatitis B Virus; settings: co-expression with wtWHV, 3 days post-transfection
Protocol: FIG. 7. WHx requires activation of Src family kinase for WHV replication. Chang cells were co-transfected with 20 μg PCWHV, wtWHV, wtWHV and RasDN (dominant-negative) (10 μg), or wtWHV and Csk (10 μg). Three days post-transfection viral core-associated DNA was isolated, purified, and subjected to Southern blot analysis using a full-length ^32P-labeled WHV genomic probe.
Chang cells were transfected with infectious WHV clones, (2×10 cm plates) were washed twice with PBS and lysed in 500 μl lysis buffer/10 cm plate (20 mM Tris HCl pH 7.5, 1 mM EDTA, 100 mM NaCl, 0.5% NP-40) for 10-15 minutes. Lysates were centrifuged at 12,000× g for 30 minutes, MgCl2 was adjusted to 10 mM, DNAseI (Boehringer Mannheim) was added to 20 U/ml and the lysates were incubated at 37° C. for 2 hours. Following DNAse I treatment, the lysates were centrifuged for 5 min at 12,000× g, layered onto a 20% sucrose cushion (300 μl of 20% sucrose in 20 mM Tris HCl pH 8.0, 150 mM NaCl) and centrifuged for 178,000× g for 3 hours at 20° C. […]
Chang cells were co-transfected with plasmids encoding either wtWHV, PCWHV, wtWHV and RasDN, or wtWHV and Csk, intracellular core-associated viral DNA was isolated 3 days post-transfection, and purified viral DNA analyzed by Southern blot hybridization as described above (FIG. 7).

WHV [5] = assay: WHV RNA: Northern blot analysis, Chang cells; type: cell-based, Woodchuck Hepatitis B Virus; settings: co-expression with wtWHV
Protocol: Chang cells were washed twice with PBS and total RNA prepared according to the manufacturer's instructions (RNeasy mini kit; Qiagen). 15 μg total RNA per sample were resolved through a 1.2% formaldehyde-agarose gel (Sambrook et al., 1989, supra), transferred to Duralon UV membrane, and pre-hybridized in Quick-Hyb solution (Stratagene) at 65° C. Hybridization to 32P-labeled full length WHV probe was carried out in the same solution at 65° C., washed as described above, and autoradiographed for 1 day.
(§1) To assess whether HBx activation of a Src signaling cascade plays an essential role in transcriptional upregulation of the viral mRNAs, Chang cells were co-transfected with wtWHV and either RasDN or Csk plasmids, and the RNA visualized by Northern analysis (FIG. 7, lanes 2 and 3). […] To ensure that the decrease in synthesis of WHV RNA by Csk was not the unforseen consequence of Csk inhibition of the CMV promoter (which drives synthesis of the WHV pregenomic RNA), control experiments assessing the effect of Csk on a CMV-βgal reporter were carried out. […] However, the WHx-induced increase in mRNA abundance (˜3-5 fold) is much less then the HBx-induced increase in viral DNA synthesis (˜20-30 fold). […] The stimulation of Src signaling cascades by HBx must therefore promote WHV replication independent of the effect of WHx on viral transcription.

CMV promoter = assay: CMV-βgal reporter control (β-galactosidase activity); type: cell-based; settings: co-expression of Csk with CMV-βgal
Text: as §1

B1: Csk: protein tyrosine kinase C-terminal Src kinase, physiologic inhibitor of Src, expressed from plasmid (protein, UniProt P41240 2-450, looked up)
Tyrosine-protein kinase CSK: SAIQAAWPSGTECIAKYNFHGTAEQDLPFCKGDVLTIVAVTKDPNWYKAKNKVGREGIIPANYVQKREGVKAGTKLSLMPWFHGKITREQAERLLYPPETGLFLVRESTNYPGDYTLCVSCDGKVEHYRIMYHASKLSIDEEVYFENLMQLVEHYTSDADGLCTRLIKPKVMEGTVAAQDEFYRSGWALNMKELKLLQTIGKGEFGDVMLGDYRGNKVAVKCIKNDATAQAFLAEASVMTQLRHSNLVQLLGVIVEEKGGLYIVTEYMAKGSLVDYLRSRGRSVLGGDCLLKFSLDVCEAMEYLEGNNFVHRDLAARNVLVSEDNVAKVSDFGLTKEASSTQDTGKLPVKWTAPEALREKKFSTKSDVWSFGILLWEIYSFGRVPYPRIPLKDVVPRVEKGYKMDAPDGCPPAVYEVMKNCWHLDAAMRPSFLQLREQLEHIKTHELHL
HBx activation of ERK2 (MAP kinase (ERK2) [1]; co-expression with HBx, serum-starved in 0.5% CS for 24 hours): impaired
HBx activation of MAP kinase (phosphorylation of MBP) (MAP kinase (ERK2) [1]; co-transfection of HBx with Csk, serum-starved 20 hours, 2% serum 2 hours): abolished
activation of MAP kinase by insulin (MAP kinase (ERK2) [1]; overexpression of Csk): only slightly impaired
HBx induction of AP-1 DNA binding complexes (AP-1): suppressed
HBx induced activation of AP-1 dependent transcription [2]: fully blocked
increase in N-Myc protein by HBx (N-Myc): impaired
downstream activation of MAP kinase by wtWHV (MAP kinase (ERK2) [3]): efficiently inhibited
WHV replication (core-associated viral DNA) (WHV [4]): completely abolished
reduction of WHV RNA level (WHV [5]): 3-5 fold
expression of βgal protein from CMV-βgal (β-galactosidase activity) (CMV promoter): did not significantly alter
